Data published in WO2021180110A1.

Molecular target: CD147 (human) (UniProt P35613)
Experiment: SPR, BIAcore 3000, CD147 amine-coupled on CM5 chip, Spike-RBD as analyte

Substance “new coronavirus S protein (COVID-19 Spike-RBD) (from UniProt P0DTC2 319-541) (ligand; other documents disagree on this pair)” has a Kd of 185 nM, a koff of 0.00206 s⁻¹ and a kon of 11100 M⁻¹ s⁻¹.
